Results as given in patent publication US20160159929A1 (ABLBIO, published 2016).
Blank lines part the entries; values can stand above or below the binder they belong to.

Columns and labels:
[1] = molecular target: T1, human DLL4 (27-251)-Fc alanine substitution mutant at position 64 (histidine) (human, UniProt Q9NR61 27-251); assay: Western blot of mutant DLL4 (27-251)-Fc, detected with HRP anti-human Fab
T1 construct: range 27-251; also called amino acid mutant at position 64; not shown: Fc protein
T1 sequence (Q9NR61 other isoform, or with tags, fused parts or gaps mutant limits assumed): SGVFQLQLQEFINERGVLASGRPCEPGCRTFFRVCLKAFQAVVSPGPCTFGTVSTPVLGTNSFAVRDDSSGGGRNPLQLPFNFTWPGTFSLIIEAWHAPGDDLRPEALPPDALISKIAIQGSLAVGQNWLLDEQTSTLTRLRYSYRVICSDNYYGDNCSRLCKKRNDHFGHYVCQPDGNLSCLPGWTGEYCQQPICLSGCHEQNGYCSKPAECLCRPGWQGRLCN
Experimental: The mutant expression media incubated for 4 days were centrifuged at 1000 rpm at room temperature for 10 minutes to remove the suspended material, and then filtered through a 0.45-μm syringe. For Western blotting analysis, the level of the protein in the mutant expression media were quantified using Octet® system (ForteBio) so that a uniform amount of the mutant would be loaded on SDS gel. Next, 20 μl of each of the mutant expression media was loaded on each of two Novex 4-12% Bis/Tris gels, and subjected to gel electrophoresis using MOPS buffer at 140 V for 50 minutes. As a control, a protein encoding a deletion fragment (amino acid residues 27 to 251) of the extracellular domain of wild-type DLL4 was used. After completion of the electrophoresis, the protein band was transferred to a polyvinylidene difluoride membrane. A total of two processes were performed.

[2] = molecular target: T2, human VEGF (hVEGF, R&D Systems, cat: 293-VE) (human, UniProt P15692-4 27-191); assay: ELISA on plate-coated hVEGF, HRP anti-Fab detection, absorbance at 450 nm; the value is column C (midpoint) of the printed 4-P fit; preparation labelled (GS pool) cell line; the Conc axis prints no unit, nM is taken from paragraph 139
T2 construct: Bought protein; also called vascular endothelial growth factor
T2 sequence (P15692 other isoform, or with tags, fused parts or gaps limits assumed): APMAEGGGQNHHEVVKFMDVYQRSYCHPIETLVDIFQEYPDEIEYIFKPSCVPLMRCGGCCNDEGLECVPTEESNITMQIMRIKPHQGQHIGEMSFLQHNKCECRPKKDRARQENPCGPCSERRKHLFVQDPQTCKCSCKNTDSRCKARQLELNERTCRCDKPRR
Experimental: (§1) The binding affinities of the dual-targeting proteins for DLL4 and VEGF were assessed using an ELISA-based solution competition assay. Specifically, a 96-well plate (Nunc-Immuno Plate, NUNC, Rochester, N.Y.) was coated with 50 ng/ml of hVEGF (R&D Systems, cat: 293-VE) and 200 ng/ml of rhDLL4 (R&D Systems, cat: 1506-D4/CF) in an amount of 100 μl per well at 4° C. overnight, and non-specific binding sites were blocked with BSA (bovine serum albumin) for 2 hours. The antibody on the 96-well microtiter plate was diluted 1/5-fold from 128 nM and 64 nM, and 100 μl of each of the dilutions was added to each well of the plate coated with hDLL4 and hVEGF proteins. Then, the plate was incubated for 2 hours, and washed five times with 0.05% tween 20-containing PBS. In order to detect the plate-bound antibody, an HRP-conjugated anti-Fab antibody (Pierce, cat: 31414)) was diluted at a ratio of 1:40,000, transferred to the washed 96-well microtiter plate, and then allowed to react at 37° C. for 1 hour. After the reaction, color development was performed using a colorimetric substrate (3,3′,5,5′-tetramethylbenzidine; Sigma-Aldrich). The enzymatic reaction was stopped using 0.5 mol/l of sulfuric acid. The absorbance at 450 nm was measured using SpectraMax 190 (molecular device).

[3] = molecular target: T3, human DLL4 protein (R&D Systems, Cat: 1506-D4/CF), extracellular domain, residues 27 to 524, C-terminal … (human, UniProt Q9NR61 27-524); assay: ELISA on plate-coated rhDLL4, HRP anti-Fab detection, absorbance at 450 nm; the value is column C (midpoint) of the printed 4-P fit; preparation labelled (GS pool) cell line; the Conc axis prints no unit, nM is taken from paragraph 139
T3 construct: range 27-524; Bought protein; also called rhDLL4; hDLL4
T3 sequence (Q9NR61 other isoform, or with tags, fused parts or gaps limits assumed): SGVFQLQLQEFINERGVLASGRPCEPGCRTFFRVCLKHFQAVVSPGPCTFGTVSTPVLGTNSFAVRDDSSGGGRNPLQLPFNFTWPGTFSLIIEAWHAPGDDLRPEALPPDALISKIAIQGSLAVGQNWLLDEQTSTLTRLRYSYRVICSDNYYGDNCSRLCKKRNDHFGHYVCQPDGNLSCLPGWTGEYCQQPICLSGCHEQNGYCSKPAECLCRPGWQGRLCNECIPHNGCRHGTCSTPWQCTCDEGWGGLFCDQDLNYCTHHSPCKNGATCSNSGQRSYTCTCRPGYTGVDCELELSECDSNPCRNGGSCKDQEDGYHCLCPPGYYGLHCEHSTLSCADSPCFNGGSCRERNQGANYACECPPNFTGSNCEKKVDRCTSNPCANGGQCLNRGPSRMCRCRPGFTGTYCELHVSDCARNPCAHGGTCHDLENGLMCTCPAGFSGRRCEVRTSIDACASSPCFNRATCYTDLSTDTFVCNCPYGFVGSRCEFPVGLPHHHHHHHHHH
Experimental: as §1

[4] = molecular target: T3, human DLL4 protein (R&D Systems, Cat: …); assay: competition ELISA: antibody premixed with human DLL4-His (600 ng/ml), transferred to plate-coated hNotch-1-hFc, bound DLL4 detected with anti-His HRP
Experimental: The neutralization effect of the Avastin-DLL4 BsAb dual-targeting antibody was assessed using an ELISA-based solution competition assay. Specifically, each well of a 96-well microtiter plate (Nunc-Immuno Plate, NUNC, Rochester, N.Y.) was coated with 100 μl of 500 ng/ml of hNotch-1-hFc protein (R&D Systems) (diluted in PBS) at 4° C. overnight, and then treated with BSA for 2 hours to block non-specific binding sites.
The Avastin-DLL4 BsAb dual-targeting antibody (purified protein) on the 96-well microtiter plate was premixed with serial dilutions of antigen protein (human DLL4-His, 600 ng/ml) at an […] concentration ranging from 0 nM to 140 nM. The antigen/antibody mixture was incubated for 30 minutes, and then transferred to a microtiter plate precoated with the DLL4 receptor hNotch-1 protein (50 ng/well) in order to measure free […]. Then, the plate was incubated for 2 hours and washed five times with 0.05% tween 20-containing PBS. In order to detect the DLL4 antigen bound to the plate, an HRP-conjugated His […] antibody reagent (Roche applied science) was diluted at a ratio of 1:800, and the washed microtiter plate was treated with the diluted antibody reagent, and then allowed to react at 37° C. for 1 hour. […]

[5] = molecular target: T3, human DLL4 protein (R&D Systems, Cat: …); assay: SPR (Biacore T200), hDLL4 immobilised on CM5, antibody as analyte, bivalent binding model
Experimental: (§2) Specifically, Biacore T200 was used in SPR analysis and HBS-EP (10 mM HEPES, pH7.4, 150 mM NaCl, 3 mM EDTA, […] surfactant P20) was used as a running buffer. Surface preparation was done by using a surface preparation target immobilization tool of a wizard program (condition: 25° C., 5 μl/min). Ligands (hVEGF and hDLL4) were diluted in 10 mM sodium acetate buffer (pH 4.5) to final concentrations of 5 μg/ml and 4 μg/ml, respectively, and then immobilized to the surface of CM5 chip by a target immobilization level for each test group. In the immobilization process, two flow cells were included as one set wherein the first and third flow cells were set as a blank, the second flow cell has hVEGF immobilized to the surface thereof, and the fourth flow cell was set as hDLL4 in the present experiment. The first and third flow cells acted as a reference to account for experimental variability due to nonspecific bindings and buffer effects, and in the analysis, subtracted RU values (Fc2−Fc1, and Fc4−Fc3) were used as experimental results. The Avastin-DLL4 BsAb dual-targeting antibody that binds to hVEGF and hDLL4 was diluted in a running buffer to a final molar concentration of 100 nM, serially diluted 1/2 times, and each of the 5 dilutions was analyzed. The sample to be analyzed was prepared to have high purity and high concentration, enough to be diluted more than 100 times at minimum, thereby minimizing buffer effect. All analysis was done by using a wizard program, screening duplicates for each sample and a regeneration step was included in between each analysis step, so that the standard of experiment remains constant.
(§3) The experimental results were analyzed by Biaevaluation software version 4.0. At this time, to determine the RU values (Fc2−Fc1 and Fc4−Fc3), the baseline was set to zero, the value measured at a buffer injection part (analyte, 0 nM) was subtracted from a whole sensorgram. Then, the resulting RU value was analyzed by a Bivalent binding model to determine a binding affinity. The factors to be analyzed include kₐ (M⁻¹s⁻¹), kd (s⁻¹), and KD (M).

[6] = molecular target: T2, human VEGF (hVEGF, R&D Systems, cat: …); assay: SPR (Biacore T200), hVEGF immobilised on CM5, antibody as analyte, bivalent binding model
Experimental: as §2, §3

[7] = molecular target: T3, human DLL4 protein (R&D Systems, Cat: …); assay: ELISA on plate-coated rhDLL4, HRP anti-Fab detection, absorbance at 450 nm; the value is column C (midpoint) of the printed 4-P fit; preparation labelled Transient; the Conc axis prints no unit, nM is taken from paragraph 139
Experimental: as §1

[8] = molecular target: T2, human VEGF (hVEGF, R&D Systems, cat: …); assay: ELISA on plate-coated hVEGF, HRP anti-Fab detection, absorbance at 450 nm; the value is column C (midpoint) of the printed 4-P fit y = (A - D)/(1 + (x/C)^B) + D; preparation labelled Transient; the Conc axis prints no unit, nM is taken from paragraph 139 (dilutions from 128 nM and 64 nM)
Experimental: as §1

binding result [1]: no binding (tested: 1 µg/mL)
B1: MLCK-2 anti-DLL4 antibody (antibody, V domains shown)
VH: EVQLLESGGGLVQPGGSLRLSCAASGFTFSDYAMSWVRQAPGKCLEWVSWIYSGSGNKYYADSVKGRFTISRDNSKNTLYLQMNSLRAEDTAVYYCARADWPFDYWGQGTLVTVSS
VL: QSVLTQPPSASGTPGQRVTISCTGSSSNIGSNDVTWYQQLPGTAPKLLIYADSKRPSGVPDRFSGSKSGTSASLAISGLRSEDEADYYCGTWDYSLSAYVFGCGTKLTVL
notes: also called MLCK2 antibody

EC50 [2]: 0.43 nM | EC50 [3]: 0.261 nM | IC50 [4]: 1.12 nM | Kd [5]: 30.2 nM | koff [5]: 0.000587 s⁻¹ | kon [5]: 19400 M⁻¹ s⁻¹ | Kd [6]: 0.126 nM | koff [6]: 1.68e-06 s⁻¹ | kon [6]: 13400 M⁻¹ s⁻¹ | EC50 [7]: 0.264 nM | EC50 [8]: 0.337 nM
B2: Avastin-DLL4 BsAb dual-targeting antibody (bispecific antibody)
heavy: EVQLVESGGGLVQPGGSLRLSCAASGYTFTNYGMNWVRQAPGKGLEWVGWINTYTGEPTYAADFKRRFTFSLDTSKSTAYLQMNSLRAEDTAVYYCAKYPHYYGSSHWYFDVWGQGTLVTVSSASTKGPSVFPLAPSSKSTSGGTAALGCLVKDVFPEPVTVSWNSGALTSGVHTFPAVLQSSGLYSLSSVVTVPSSSLGTQTYICNVNHKPSNTKVDKKVEPKSCDKTHTCPPCPAPELLGGPSYFLFPPKPKDTLMISRTPEVTCVVVDVSHEDPEVKFNWYVDGVEVHNAKTKPREEQYNSTYRVVSVLTVLHQDWLNGKEYKCKVSNKALPAPIEKTISKAKGQPREPQVYTLPPSRHMTKNQVSLTCLVKGFYPSDIAVEWESNGQPENNYKTTPPVLDSDGSFFLYSKLTVDKSRWQQGNVFSCSVMHEALHNHYTQKSLSLSPGKGGGGSGGGGSGGGGSQSVLTQPPSASGTPGQRVTISCTGSSSNIGSNDVTWYQQLPGTAPKLLIYADSKRPSGVPDRFSGSKSGTSASLAISGLRSEDEADYYCGTWDYSLSAYVFGCGTKLTVLGGGGSGGGGSGGGGSGGGGSEVQLLESGGGLVQPGGSLRLSCAASGFTFSDYAMSWVRQAPGKCLEWVSWIYSGSGNKYYADSVKGRFTISRDNSKNTLYLQMNSLRAEDTAVYYCARADWPFDYWGQGTLVTVSS
light: not shown
notes: made in CHO cells; also called VEGF-DLL4 BsAb; dual-targeting protein
